Values belong to the substance of their own block, whether it stands above or below them.
Legend:
HLA-Cw*0702 (human) = HLA-Cw*0702 (human) (UniProt P10321); experiment: Luminex beads; MAb 1/100; competitor rHLA-E
HLA-Cw*0303 (human) = experiment: Luminex beads; MAb 1/100; competitor rHLA-E
HLA-Cw*1502 (human) = experiment: Luminex beads; MAb 1/100; competitor rHLA-E
HLA-Cw*0501 (human) [1] = experiment: Luminex beads; MAb 1/100; competitor rHLA-E
HLA-B*1513 (human) = experiment: Luminex beads; MAb 1/100; competitor rHLA-E
HLA-B*1401 (human) [2] = biological target: HLA-B*1401 (human) (UniProt P01889); experiment: Luminex beads; MAb 1/100; competitor rHLA-E
HLA-B*3701 (human) = experiment: Luminex beads; MAb 1/100; competitor rHLA-E
HLA-Cw*0304 (human) [3] = experiment: Luminex beads; MAb 1/100; competitor rHLA-E
HLA-B*4801 (human) = HLA-B*4801 (human) (UniProt P01889); experiment: Luminex beads; MAb 1/100; competitor rHLA-E
HLA-Cw*0202 (human) = experiment: Luminex beads; MAb 1/100; competitor rHLA-E
HLA-B*1511 (human) = HLA-B*1511 (human) (UniProt P01889); experiment: Luminex beads; MAb 1/100; competitor rHLA-E
HLA-B*0801 (human) = HLA-B*0801 (human) (UniProt P01889); experiment: Luminex beads; MAb 1/100; competitor rHLA-E
HLA-B*4403 (human) = experiment: Luminex beads; MAb 1/100; competitor rHLA-E
HLA-Cw*1402 (human) = HLA-Cw*1402 (human) (UniProt P10321); experiment: Luminex beads; MAb 1/100; competitor rHLA-E
HLA-B*2708 (human) = HLA-B*2708 (human) (UniProt P01889); experiment: Luminex beads; MAb 1/100; competitor rHLA-E
HLA-Cw*1701 (human) [4] = experiment: Luminex beads; MAb 1/100; competitor rHLA-E
HLA-B*4501 (human) = experiment: Luminex beads; MAb 1/100; competitor rHLA-E
HLA-Cw*0602 (human) [5] = biological target: HLA-Cw*0602 (human) (UniProt P10321); experiment: Luminex beads; MAb 1/100; competitor rHLA-E
HLA-B*4001 (human) = HLA-B*4001 (human) (UniProt P01889); experiment: Luminex beads; MAb 1/100; competitor rHLA-E
HLA-Cw*1802 (human) = HLA-Cw*1802 (human) (UniProt P10321); experiment: Luminex beads; MAb 1/200; competitor IgG-free serum
HLA-Cw*0501 (human) [6] = experiment: as above
HLA-B*1401 (human) [7] = biological target: HLA-B*1401 (human) (UniProt P01889); experiment: as above
HLA-Cw*0304 (human) [8] = experiment: as above
HLA-B*4006 (human) = HLA-B*4006 (human) (UniProt P01889); experiment: as above
HLA-Cw*1701 (human) [9] = experiment: as above
HLA-B*5801 (human) = experiment: as above
HLA-Cw*0602 (human) [10] = biological target: HLA-Cw*0602 (human) (UniProt P10321); experiment: as above
HLA-B*5201 (human) = experiment: as above
[11] = biological target: HLA-Cw*0801 (Cw8) (human) (UniProt P10321); experiment: Luminex single-antigen beads; rank of MEM-E/02 reactivity among HLA-Ia alleles
HLA-B*6701 (B67) (human) [12] = biological target: HLA-B*6701 (B67) (human) (UniProt P01889); experiment: as above
[13] = biological target: HLA-Cw*1701 (Cw17) (human); experiment: Luminex single-antigen beads; MEM-E/02 1/600; serum Mi59 1/100
HLA-A*3301 (A33) (human) = experiment: as above
HLA-B*4403 (B44) (human) = experiment: as above
HLA-Cw*0304 (human) [14] = experiment: as above
HLA-B*1801 (B18) (human) = experiment: as above
HLA-B*6701 (B67) (human) [15] = biological target: HLA-B*6701 (B67) (human) (UniProt P01889); experiment: as above
HLA-A*2403 (A24) (human) = experiment: as above
HLA-B*0801 (B8) (human) = HLA-B*0801 (B8) (human) (UniProt P01889); experiment: as above
HLA-B*5301 (B53) (human) = experiment: as above
HLA-B*5001 (B50) (human) = experiment: as above
HLA-A*2901 (A29) (human) = HLA-A*2901 (A29) (human) (UniProt P04439); experiment: as above
HLA-A*3201 (A32) (human) = experiment: as above
HLA-B*1513 (B77) (human) = experiment: as above

- MFI (HLA-Cw*0702 (human)): 220 MFI
- MFI (HLA-Cw*0303 (human)): 139 MFI
- MFI (HLA-Cw*1502 (human)): 170 MFI
- MFI (HLA-Cw*0501 (human) [1]): 201 MFI
- MFI (HLA-B*1513 (human)): 256 MFI
- MFI (HLA-B*1401 (human) [2]): 230 MFI
- MFI (HLA-B*3701 (human)): 80 MFI
- MFI (HLA-Cw*0304 (human) [3]): 181 MFI
- MFI (HLA-B*4801 (human)): 224 MFI
- MFI (HLA-Cw*0202 (human)): 220 MFI
- MFI (HLA-B*1511 (human)): 192 MFI
- MFI (HLA-B*0801 (human)): 219 MFI
- MFI (HLA-B*4403 (human)): 89 MFI
- MFI (HLA-Cw*1402 (human)): 165 MFI
- MFI (HLA-B*2708 (human)): 191 MFI
- MFI (HLA-Cw*1701 (human) [4]): 376 MFI
- MFI (HLA-B*4501 (human)): 75 MFI
- MFI (HLA-Cw*0602 (human) [5]): 88 MFI
- MFI (HLA-B*4001 (human)): 235 MFI
- MFI (HLA-Cw*1802 (human)): 8810 MFI
- MFI (HLA-Cw*0501 (human) [6]): 6260 MFI
- MFI (HLA-B*1401 (human) [7]): 5370 MFI
- MFI (HLA-Cw*0304 (human) [8]): 2030 MFI
- MFI (HLA-B*4006 (human)): 7410 MFI
- MFI (HLA-Cw*1701 (human) [9]): 1930 MFI
- MFI (HLA-B*5801 (human)): 3420 MFI
- MFI (HLA-Cw*0602 (human) [10]): 2190 MFI
- MFI (HLA-B*5201 (human)): 2020 MFI
Substance: murine monoclonal antibody (MAb) MEM-E/02

- MEM-E/02 Reactivity Rank [11]: 8 rank
- MEM-E/02 Reactivity Rank (HLA-B*6701 (B67) (human) [12]): > 65 rank
- MFI [13]: < 500 MFI
- MFI (HLA-A*3301 (A33) (human)): < 500 MFI
- MFI (HLA-B*4403 (B44) (human)): < 500 MFI
- MFI (HLA-Cw*0304 (human) [14]): 557 MFI
- MFI (HLA-B*1801 (B18) (human)): < 500 MFI
- MFI (HLA-B*6701 (B67) (human) [15]): < 500 MFI
- MFI (HLA-A*2403 (A24) (human)): < 500 MFI
- MFI (HLA-B*0801 (B8) (human)): < 500 MFI
- MFI (HLA-B*5301 (B53) (human)): < 500 MFI
- MFI (HLA-B*5001 (B50) (human)): < 500 MFI
- MFI (HLA-A*2901 (A29) (human)): < 500 MFI
- MFI (HLA-A*3201 (A32) (human)): < 500 MFI
- MFI (HLA-B*1513 (B77) (human)): < 500 MFI
Substance: murine monoclonal antibody MAb MEM-E/02

Source: US20120171195A1
